Test results taken from patent US20100298541A1 (published 2010).

Columns and labels:
[1] = molecular target: T1, TRAIL-R2/Fc fusion protein (R & D Systems) (UniProt O14763 54-182, limits assumed); experiment: TRAIL-R2 phage ELISA
T1 construct: not shown: Fc part of the bought fusion; captured with anti-human IgG Fc antibody

[2] = molecular target: T1, TRAIL-R2/Fc fusion protein (R & D …); experiment: TRAIL-R2 phage ELISA; remark: listed apart in the source
[3] = molecular target: T1, TRAIL-R2/Fc fusion protein (R & D …); experiment: SPR (BIAcore), TRAIL-R2/Fc captured on goat anti-human-Fc IgG, 5E5 injected; from kon and koff
Description: Goat anti-human-Fc IgG was immobilized at a density of ˜7700 RUs onto a flow cell of a CM5 Biacore sensor chip surfaces using a standard amino coupling protocol (BIAcore, Inc.). Separately, a blank surface was also prepared on the same chip using the identical coupling protocol, minus the protein. This blank surface was used as a reference cell throughout the experiment, and served to correct for both non-specific binding and certain housekeeping artifacts.
After baseline stabilization, solutions of the Tn3 clone 5E5 (Table 7) were injected over both the captured ligand and control surfaces. Between injections, the Fc-capture surface was regenerated with two 1 min. injections of 10 mM Gly, pH2.
Several buffer and control protein injections were also interspersed throughout the injection series. Later, these buffer injections were used, along with the reference cell data, to correct the raw data sets for injection artifacts and/or non-specific ‘binding’ through a technique commonly referred to as “double-referencing.” (Myszka, D. G. (1999) J. Mol. Recognit. 12, pp. 279-284). Sensorgram overlays of the fully corrected data were generated using the BIAevaluation 4.1 software (BIAcore, Inc, Uppsala, Sweden). The affinity of 5E5 for binding to TRAIL-R2 was calculated by measuring the kₒₙ and koff.values in the BIAevaluation software for the sensorgram shown in FIG. 13.

SYNAGIS® [4] = experiment: SPR (BIAcore 3000), SYNAGIS® immobilized, both injected at 1 µM
SYNAGIS® [5] = experiment: SPR (BIAcore 3000), SYNAGIS® amine-coupled to the chip, equilibrium binding of SynBP01
[6] = molecular target: T1, TRAIL-R2/Fc fusion protein (R & D …); experiment: Attana biosensor, TRAIL-R2 chip
Description: A qualitative comparison of binding by monomeric 1C12, 1C12-Fc and 1C12-Cκ/1C12-IGHG1 proteins was performed by injecting samples of each of these proteins over a TRAIL-R2 chip on an Attana biosensor instrument.

T1 sequence (O14763 54-182 limits assumed): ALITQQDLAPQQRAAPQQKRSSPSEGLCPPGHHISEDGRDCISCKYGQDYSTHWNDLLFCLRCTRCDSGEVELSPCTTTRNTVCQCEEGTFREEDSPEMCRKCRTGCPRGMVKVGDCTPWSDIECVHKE
Chain of SYNAGIS® (VH, as listed by the source, chain 1 of 2): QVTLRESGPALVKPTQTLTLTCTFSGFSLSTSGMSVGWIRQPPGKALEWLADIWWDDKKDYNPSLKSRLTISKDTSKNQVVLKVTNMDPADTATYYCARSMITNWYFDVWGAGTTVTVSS
Chain of SYNAGIS® (VL, as listed by the source, chain 2 of 2): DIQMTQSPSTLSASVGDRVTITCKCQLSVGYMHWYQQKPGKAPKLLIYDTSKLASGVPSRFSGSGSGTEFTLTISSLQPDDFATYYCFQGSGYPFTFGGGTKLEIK

Binder | binding result [1] | further results
1C10 (designed binder) IEVKDVTDTTALITWSPCCPYDRYTGCELTYGIKDVPGDRTTIDLQSSRSHYSIGNLKPDTEYEVSLICITTFGHVSNPAKETFTT | binds | –
2F08 (designed binder) IEVKDVTDTTALITWSHAGGIRIGCELTYGIKDVPGDRTTIDLHVWQVYYSIGNLKPDTEYEVSLICMTPYLLGNPAKETFTT | binds | –
2H6 (designed binder) IEVKDVTDTTALITWATPSVFDSHIEGCELTYGIKDVPGDRTTIDLTEDENQYSIGNLKPDTEYEVSLICWKHHGDAWSKETFTT | – | binding result [2]: binds
2A12 (designed binder) IEVKDVTDTTALITWSPCCQEFTLTGCELTYGIKDVPGDRTTIDLHNHHHHYSIGNLKPDTEYEVSLICITDAGNKSNPAKETFTT | binds | –
2F4 (designed binder) IEVKDVTDTTALITWSPCIMVCLRTGCELTYGIKDVPGDRTTIDLTEDENQYSIGNLKPDTEYEVSLICRRGDMSGAPAKETFTT | – | binding result [2]: binds
5B10 (designed binder) IEVKDVTDTTALITWSPCLFVCLRTGCELTYGIKDVPGDRTTIDLTEDENQYSIGNLKPDTEYEVSLICRRGDMSGAPAKETFTT | – | binding result [2]: binds
5E5 (designed binder, also called TRAIL-R2 specific clone 5E5) IEVKDVTDTTALITWSLAPGYRLGCELTYGIKDVPGDRTTIDLTEDENQYSIGNLKPDTEYEVSLICVKLCMRGNPAKETFTT | – | Kd [3]: ~0.7 µM
1E05 (designed binder) IEVKDVTDTTALITWSPCSPCQLVTGCELTYGIKDVPGDRTTIDLSCTRAKYSIGNLKPDTEYEVSLICINKLGDTSNPAKETFTT | binds | –
1C12 (designed binder, also called monomeric 1C12) IEVKDVTDTTALITWAKPEKWDGSIYGCELTYGIKDVPGDRTTIDLNSRHTAYSIGNLKPDTEYEVSLICFTPYGAKSNPAKETFTT | binds | –
8B3 (designed binder) IEVKDVTDTTALITWSPPEYAFYYTGCELTYGIKDVPGDRTTIDLTEDENQYSIGNLKPDTEYEVSLICVKNCGLFSNPAKETFTT | – | binding result [2]: binds
2G03 (designed binder) IEVKDVTDTTALITWSPGPLLRHTTGCELTYGIKDVPGDRTTIDLRPIPRAYSIGNLKPDTEYEVSLICRNRPQQSNPAKETFTT | binds | –
1B12 (designed binder) IEVKDVTDTTALITWAKPRQGGSNISGCELTYGIKDVPGDRTTIDLYHKGLHYSIGNLKPDTEYEVSLICPKMTGYTYSKETFTT | binds | –
2F02 (designed binder) IEVKDVTDTTALITWSPSRGGTSLTGCELTYGIKDVPGDRTTIDLDQVRATYSIGNLKPDTEYEVSLICHTNSGQPSNPAKETFTT | binds | –
1D8 (designed binder) IEVKDVTDTTALITWSPCQMLSSLTGCELTYGIKDVPGDRTTIDLNIERPKYSIGNLKPDTEYEVSLICFTMTGYRSNPAKETFTT | binds | –
SynBP01-Fc (Fc fusion, Chimeric fusion made in 293EBNA cells from pOE-SynBP01; Called bivalent; also called SynBP01 scaffold fused to an Fc region; not shown: CH2 and CH3 domains of IgG1 Fc from the pOE-Fc vector) IEVKDVTDTTALITWSPPSVLVGYTIELTYGIKDVPGDRTTIDLTEDENQYSIGNLKPDTEYEVSLISVTEFGRRRSKETFTT | – | fold increase in total response units compared to SynBP01 (SYNAGIS® [4]): ~6 fold
2D3 (designed binder) IEVKDVTDTTALITWSPGGFQKITTGCELTYGIKDVPGDRTTIDLVNRRNHYSIGNLKPDTEYEVSLICLTYKARAISKETFTT | binds | –

Binder | binding result [1] | further results
6C7 (designed binder, Lower case q is a TAG codon read as glutamine) IEVKDVTDTTALITWAKPMSCSGYIQGCELTYGIKDVPGDRTTIDLTEDENQYSIGNLKPDTEYEVSLICAKLTGWLCSKETFTT | – | binding result [2]: binds
2B04 (designed binder, also called 2B4) IEVKDVTDTTALITWAPPMLTDSEINGCELTYGIKDVPGDRTTIDLTSSYWSYSIGNLKPDTEYEVSLICSTLRRNAISKETFTT | binds | –
6F11 (designed binder) IEVKDVTDTTALITWSPSVARMLETGCELTYGIKDVPGDRTTIDLTEDENQYSIGNLKPDTEYEVSLICITLCGRGVSKETFTT | – | binding result [2]: binds
1C06 (designed binder) IEVKDVTDTTALITWSPRMYTWIQTGCELTYGIKDVPGDRTTIDLTHLSGSYSIGNLKPDTEYEVSLICLKLTRTHISKETFTT | binds | –
10D9 (designed binder, Lower case q in the BC loop is a TAG codon read as glutamine in the suppressor strain) IEVKDVTDTTALITWSPPLFCCQKTGCELTYGIKDVPGDRTTIDLTEDENQYSIGNLKPDTEYEVSLICFKLTGFLYSKETFTT | – | binding result [2]: binds
1H05 (designed binder) IEVKDVTDTTALITWSPGMFDQVRTGCELTYGIKDVPGDRTTIDLGKYWERYSIGNLKPDTEYEVSLICRNQYGQHQSKETFTT | binds | –
SynBP01 (designed binder, also called SYNAGIS® specific Tn3 scaffold) AAIEVKDVTDTTALITWSPPSVLVGYTIELTYGIKDVPGDRTTIDLTEDENQYSIGNLKPDTEYEVSLISVTEFGRRRSKETFTTGGGTLEHHHHHH | – | Kd (SYNAGIS® [5]): 16 µM
2A11 (designed binder) IEVKDVTDTTALITWSPPFRAGHVTGCELTYGIKDVPGDRTTIDLVTARCQYSIGNLKPDTEYEVSLICTTGNGLRSNPAKETFTT | binds | –
D1-Cκ/D1-IGHG1 (other, Control two chain tetravalent construct of D1; not shown: human C-kappa region (constant region of an antibody kappa light chain); heavy chain constant region of human IgG1 (IGHG1)) light: IEVKDVTDTTALITWSPGERIWMFTGCELTYGIKDVPGDRTTIDLTEDENQYSIGNLKPDTEYEVSLICPNYERISNPAKETFTTGGGTPT heavy: IEVKDVTDTTALITWSPGERIWMFTGCELTYGIKDVPGDRTTIDLTEDENQYSIGNLKPDTEYEVSLICPNYERISNPAKETFTTGGGTPT | – | binding result [6]: no binding
1A03 (designed binder) IEVKDVTDTTALITWAPPPFSNSCIIGCELTYGIKDVPGDRTTIDLRPGRASYSIGNLKPDTEYEVSLICSTGTGLPSNPAKETFTT | binds | –
1G11 (designed binder) IEVKDVTDTTALITWSWAQANPGGCELTYGIKDVPGDRTTIDLWHSITFYSIGNLKPDTEYEVSLICKTKVQSSNPAKETFTT | binds | –
1B04 (designed binder) IEVKDVTDTTALITWSPSHGVESSTGCELTYGIKDVPGDRTTIDLHGLQRVYSIGNLKPDTEYEVSLICAKICGHLVSKETFTT | binds | –
7G11 (designed binder) IEVKDVTDTTALITWAKPSIVNGFISGCELTYGIKDVPGDRTTIDLTEDENQYSIGNLKPDTEYEVSLICDKCFGAMKSKETFTT | – | binding result [2]: binds
3B11 (designed binder) IEVKDVTDTTALITWSPCQLLALITGCELTYGIKDVPGDRTTIDLNSRHYHYSIGNLKPDTEYEVSLICYTSTGQRSNPAKETFTT | binds | –
1E03 (designed binder, also called 1E3) IEVKDVTDTTALITWAAPFFGSSYISGCELTYGIKDVPGDRTTIDLHYYVTRYSIGNLKPDTEYEVSLICVNLSGHMPSKETFTT | binds | –
D1-Fc (Fc fusion, not shown: hinge and Fc region of human IgG1) IEVKDVTDTTALITWSPGERIWMFTGCELTYGIKDVPGDRTTIDLTEDENQYSIGNLKPDTEYEVSLICPNYERISNPAKETFTTGA | – | binding result [6]: no binding
